± gives the uncertainty stated by the source.
Experiment: protein stability index of a GFP-peptide fusion (yeast GPS) (PSI 1-4); higher = more stable; sorted into four equal gates, so the index is relative within each strain
Procedure, shortened: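 Plasmids isolated from each sorting gate were PCR-amplified and Illumina-sequenced, and barcodes assigned the reads to strains. The gates, four of equal size, were set by GFP/Cherry fluorescence ratio on mid-log cultures in leucine-free medium. These cultures were yeast carrying a pooled library of tiled 17-residue yeast protein peptides fused downstream of GFP on a plasmid that also expresses Cherry. The protein stability index is the sum of every gate's read frequency times its gate number.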

Work on NNFIVERVQSDENKDDE [SRP68] yielded a protein stability index (doa10∆) of 3.52 ± 0.16, a protein stability index (pdr5∆) of 3.35 ± 0.1 and a protein stability index (san1∆) of 2.77 ± 0.23. The protein stability index (ubr1∆) was 3.04 ± 0.098.
Sequence LQSLNESKDLLRASFNK [SRB4] has a protein stability index (doa10∆) of 3.16 ± 0.13, a protein stability index (pdr5∆) of 3.32 ± 0.13 and a protein stability index (san1∆) of 2.98 ± 0.083. For the same sequence, the protein stability index (ubr1∆) was 3.48 ± 0.075.
Work on DENKAGATSKPAFSFGA [YJL041W/NSP1] yielded a protein stability index (doa10∆) of 3.15 ± 0.07, a protein stability index (pdr5∆) of 3.32 ± 0.068 and a protein stability index (san1∆) of 3.33 ± 0.048. For the same sequence, the protein stability index (ubr1∆) was 3.1 ± 0.061.
In the case of VDSRATAGNWVASQTVK [PRE2], the protein stability index (doa10∆) is reported as 3.17 ± 0.12, the protein stability index (pdr5∆) is reported as 3.4 ± 0.079 and the protein stability index (san1∆) is reported as 3.13 ± 0.078. It also gave a protein stability index (ubr1∆) of 3.26 ± 0.066.
Work on PREDKENNRLLFECRTC [RPB9] yielded a protein stability index (doa10∆) of 3.29 ± 0.14, a protein stability index (pdr5∆) of 3.17 ± 0.13 and a protein stability index (san1∆) of 3.02 ± 0.17. It also gave a protein stability index (ubr1∆) of 3.29 ± 0.16.
GNSGVVRATFRNNLPAK [RPL33A] gave a protein stability index (doa10∆) of 2.88 ± 0.085, a protein stability index (pdr5∆) of 3.17 ± 0.12 and a protein stability index (san1∆) of 3.19 ± 0.099. For the same sequence, the protein stability index (ubr1∆) was 3.22 ± 0.067.
LSRKPSDNKKRSGSNAA [RPC82] gave a protein stability index (doa10∆) of 2.92 ± 0.06, a protein stability index (pdr5∆) of 3.31 ± 0.064 and a protein stability index (san1∆) of 3.03 ± 0.045. It also gave a protein stability index (ubr1∆) of 3.03 ± 0.044.
Work on GKGRQSAKAELEKLVDH [PRE10] yielded a protein stability index (doa10∆) of 1.82 ± 0.099, a protein stability index (pdr5∆) of 2.19 ± 0.072 and a protein stability index (san1∆) of 1.59 ± 0.28. The protein stability index (ubr1∆) was 1.14 ± 0.088.
In the case of ANVVDITNDWEQPCVDI [YJR042W/NUP85], the protein stability index (doa10∆) is reported as 3.3 ± 0.071, the protein stability index (pdr5∆) is reported as 3.41 ± 0.062 and the protein stability index (san1∆) is reported as 3.23 ± 0.051. It also gave a protein stability index (ubr1∆) of 3.12 ± 0.06.
NQLVAKLLLLRINSTDE [SRB8] gave a protein stability index (doa10∆) of 1.67 ± 0.11, a protein stability index (pdr5∆) of 1.22 ± 0.17 and a protein stability index (ubr1∆) of 1.14 ± 0.055.
For LEVFHHFFKWIEFIVYH [SRB8], the protein stability index (doa10∆) was 1.13 ± 0.054, the protein stability index (pdr5∆) was 1.11 ± 0.047 and the protein stability index (san1∆) was 1.08 ± 0.17. The protein stability index (ubr1∆) was 1.06 ± 0.041.
LMEFLCVVSTDSTNLSD [ECM29] showed a protein stability index (doa10∆) of 1.92 ± 0.059, a protein stability index (pdr5∆) of 1.65 ± 0.056 and a protein stability index (san1∆) of 1.84 ± 0.094. For the same sequence, the protein stability index (ubr1∆) was 1.72 ± 0.063.
Sequence EFETPTFLVSNDDEVSQ [RPN14] has a protein stability index (doa10∆) of 2.69 ± 0.092, a protein stability index (pdr5∆) of 2.89 ± 0.084 and a protein stability index (san1∆) of 2.72 ± 0.079. The protein stability index (ubr1∆) was 2.77 ± 0.13.
GFIENCNGSALVEARSL [MTR3] gave a protein stability index (doa10∆) of 2.66 ± 0.1, a protein stability index (pdr5∆) of 2.83 ± 0.085 and a protein stability index (san1∆) of 2.23 ± 0.12. For the same sequence, the protein stability index (ubr1∆) was 2.15 ± 0.12.
With TSKPVFSFGAATPSAKE [YLR335W/NUP2] the protein stability index (doa10∆) was 2.95 ± 0.046, the protein stability index (pdr5∆) was 3.08 ± 0.053 and the protein stability index (san1∆) was 3.08 ± 0.043. The protein stability index (ubr1∆) was 3.06 ± 0.041.
Sequence FILTIATAFLGYCCVYG [COB] has a protein stability index (doa10∆) of 1.66 ± 0.098, a protein stability index (pdr5∆) of 1.27 ± 0.11 and a protein stability index (san1∆) of 1.22 ± 0.22. The protein stability index (ubr1∆) was 1.36 ± 0.072.
With IELLSYLVEAPWNDDYP [YML103C/NUP188] the protein stability index (doa10∆) was 1.68 ± 0.093, the protein stability index (pdr5∆) was 2.04 ± 0.15 and the protein stability index (ubr1∆) was 2.49 ± 0.17.
For EGLIRLDNLTEDPNSAA [DIS3], the protein stability index (doa10∆) was 3.23 ± 0.066, the protein stability index (pdr5∆) was 3.31 ± 0.061 and the protein stability index (san1∆) was 3.229 ± 0.032. For the same sequence, the protein stability index (ubr1∆) was 3.185 ± 0.031.
TNQDGLKFVKVRVRTTK [RPB2] showed a protein stability index (doa10∆) of 2.42 ± 0.084, a protein stability index (pdr5∆) of 3.05 ± 0.12 and a protein stability index (san1∆) of 3.3 ± 0.1. For the same sequence, the protein stability index (ubr1∆) was 3.2 ± 0.088.
With SVSPQMNAILTDVKLTL [SMD1] the protein stability index (doa10∆) was 2.85 ± 0.047, the protein stability index (pdr5∆) was 2.85 ± 0.062 and the protein stability index (san1∆) was 2.83 ± 0.04. It also gave a protein stability index (ubr1∆) of 3 ± 0.057.
Sequence NIIASPLSAGFNYGKLP [SIN4] has a protein stability index (doa10∆) of 2.62 ± 0.079, a protein stability index (pdr5∆) of 2.72 ± 0.086 and a protein stability index (san1∆) of 2.68 ± 0.048. The protein stability index (ubr1∆) was 2.54 ± 0.076.
TSTPPPPPAPHNLHPQI [SNF5] showed a protein stability index (doa10∆) of 3.2 ± 0.058, a protein stability index (pdr5∆) of 3.16 ± 0.048 and a protein stability index (san1∆) of 3.08 ± 0.049. It also gave a protein stability index (ubr1∆) of 3.14 ± 0.039.
Work on NDRNPRLNENKKIGCYM [CSN12] yielded a protein stability index (doa10∆) of 3.04 ± 0.069, a protein stability index (pdr5∆) of 3.22 ± 0.072 and a protein stability index (san1∆) of 3.12 ± 0.051. The protein stability index (ubr1∆) was 3.26 ± 0.065.
Sequence IVNHEQDLPKINDKRAN [SRB4] has a protein stability index (doa10∆) of 3.28 ± 0.19, a protein stability index (pdr5∆) of 3.21 ± 0.11 and a protein stability index (san1∆) of 2.96 ± 0.098. It also gave a protein stability index (ubr1∆) of 3.08 ± 0.08.
Sequence FNGIENQSAYEWNGKSF [ISW2] has a protein stability index (doa10∆) of 3.09 ± 0.12, a protein stability index (pdr5∆) of 3.25 ± 0.2 and a protein stability index (san1∆) of 3.31 ± 0.076. For the same sequence, the protein stability index (ubr1∆) was 3.22 ± 0.12.
With LSSELDSNKTLLHNHLK [SMC2] the protein stability index (doa10∆) was 3.21 ± 0.059, the protein stability index (pdr5∆) was 3.26 ± 0.058 and the protein stability index (san1∆) was 3.17 ± 0.048. It also gave a protein stability index (ubr1∆) of 3.2 ± 0.039.
CEQQPSQEREFSLLVKA [SIN4] gave a protein stability index (doa10∆) of 3.01 ± 0.077, a protein stability index (pdr5∆) of 3.07 ± 0.08 and a protein stability index (san1∆) of 2.94 ± 0.054. The protein stability index (ubr1∆) was 3.04 ± 0.045.
